Reference: doi:10.1101/464131

Biological target: BS69 CC-MYND domain (amino acids 480-602) (human) (UniProt Q15326)
Assay: ITC

Chain of BS69 CC-MYND domain (amino acids 480-602) (human) (Q15326 480-602): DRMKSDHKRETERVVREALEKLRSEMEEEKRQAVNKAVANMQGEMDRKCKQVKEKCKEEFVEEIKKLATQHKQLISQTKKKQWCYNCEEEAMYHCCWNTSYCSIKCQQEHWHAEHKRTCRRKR
Chain of type 1 EBNA2 polypeptide T1 EBNA2_(381-445) (domain or fragment) (P12978 381-445): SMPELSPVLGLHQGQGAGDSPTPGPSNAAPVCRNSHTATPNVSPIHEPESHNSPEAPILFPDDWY

Substance | Kd | stoichiometry N (molar ratio EBNA2 : BS69CC-MYND monomer)
type 1 EBNA2 polypeptide T1 EBNA2_(381-445) (domain or fragment) | 0.95 µM | 0.42
type 1 EBNA2 motif 2 peptide (435-445) | 47.7 µM | 
